According to the supplement of paper PMC11865577:

Key:
Assay in all cases: pull-down binding Z-score (relative to library population); higher = stronger binding
Conditions in all cases: RNA library: Library-2
[1] = system: TO-3-N3-2 (biotin conjugate)
Summary of the method: (§1)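 A heat-folded, dye-end-labelled (Cy5 or Cy3) RNA library (1 μg, phosphate/NaCl/KCl buffer) was exposed for 60 min at 25 °C to streptavidin beads holding 100 pmol of biotin-conjugated small molecule. RNA retained on the beads was eluted in hot SDS and hybridised to a DNA barcode microarray for 20 h at 55.5 °C. Binding scores were Z-scores against the library mean and standard deviation, calculated after subtracting beads alone and taking trimmed means of replicate probes.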

[2] = system: TO-N3-2 (biotin conjugate)
Summary of the method: as §1

TO-N3 (biotin conjugate) = system: TO-N3 (biotin conjugate)
Summary of the method: as §1

[3] = system: TO-3-N3 (biotin conjugate)
Summary of the method: as §1

| Sequence | pull-down binding Z-score [1] | pull-down binding Z-score [2] | pull-down binding Z-score (TO-N3 (biotin conjugate)) | pull-down binding Z-score [3] |
| --- | --- | --- | --- | --- |
| GUGAAACAUUUGUCAC [SHAPE_invivo_SARS-CoV-2_Motif_46] | 0.013 | -0.394 | 0.532 | 0.818 |
| GUGAAGAAUCAU | -0.146 | -0.489 | 0.379 | 0.637 |
| GUGAAUUCAACAU [DMSMaPseq_invitro_SARS-CoV-2_Motif_308] | -0.213 | -0.524 | -0.428 | -0.238 |
| GUGAGAGAGAGCCGGAACCCAGGGAAUGCUGAGUUCGAAGAUCUCAC [IAV_invivo_NP_5_Motif_14+IAV_invivo_NP_5_Motif_14] | 0.125 | 1.5 | 0.687 | 0.351 |
| GUGAUAGAGCCAUGCCUAACAUGCUUAGAAUUAUGGCCUCAC | 0.0068 | -0.0566 | 0.179 | 0.323 |
| GUGAUGAACUGAAGAUUAAUGCGGCUUGUAGAAAGGUUCAACACAUGGUUGUUAAAGCUGCAUUAUUAGCAGACAAAUUCCCAGUUCUUCAC | 0.69 | 0.059 | 0.101 | -0.0396 |
| GUGCACUUGACCCUCUCUCAGAAACAAAGUGUAC [SHAPE_invivo_SARS-CoV-2_Motif_422] | -0.137 | -0.312 | 0.229 | 0.278 |
| GUGCAGAAUGAAUUCUCGUAACUACAUAGCACAAGUAGAUGUAGUUAACUUUAAUCUCAC | -0.202 | -0.275 | -0.646 | -0.768 |
| GUGCCACUCCAUGGCAC | -0.276 | -0.862 | 0.324 | 0.641 |
| GUGCCAGCACAAAAUGCUAUAAGCAC [IAV_invivo_PB1_2_Motif_3+IAV_invivo_PB1_2_Motif_3] | -0.201 | -0.727 | -1.07 | -0.871 |
| GUGCCAUCAAAUUGGAUGACAAAGAUCCAAAUUUCAAAGAUCAAGUCAUUUUGCUGAAUAAGCAUAUUGACGCAU | -0.165 | -0.159 | -0.411 | -0.675 |
| GUGCCCAAAAUACGUCAGGAGUGC [IAV_invivo_HA_4_Motif_13+IAV_invivo_HA_4_Motif_13] | 0.129 | 0.402 | 0.0361 | -0.325 |
| GUGCCUGGAAUAUUGGUGAACAGAAAUCAAUACUGAGUCCUCUUUAUGCAUUUGCAUCAGAGGCUGCUCGUGUUGUACGAUCAAUUUUCUCCCGCAC [SHAPE_invivo_SARS-CoV-2_Motif_37] | -0.0608 | 0.225 | -0.115 | -0.254 |
| GUGCGGCACAGGCACUAGUACUGAUGUCGUAU [SHAPE_invitro_SARS-CoV-2_Motif_246] | 0.0228 | 0.326 | 0.568 | 0.297 |
| GUGCGUAUAAAGAUUGUACAAAUGUUAAGUGACACACUUAAAAAUCUCUCUGACAGAGUCGUAUUUGUCUUAUGGGCAC [DMSMaPseq_invitro_SARS-CoV-2_Multi_54_ComplexLevel_1] | -0.29 | -0.644 | -0.833 | -1.04 |
| GUGCUAAGCAC | -0.435 | -1.24 | -0.59 | -0.151 |
| GUGCUAAUGACCCUGUGGGUUUUACAC [SHAPE_invivo_SARS-CoV-2_Motif_252] | -0.275 | -0.465 | 0.0247 | 0.178 |
| GUGCUUGGGACAUUUGAUACCGCAC [IAV_invivo_PB2_1_Motif_30+IAV_invivo_PB2_1_Motif_30] | -0.147 | 0.571 | -0.171 | -0.258 |
| GUGGAUGGUUAUGUUCAC | -0.266 | -0.628 | -0.236 | 0.0943 |
| GUGGCACUGAGAAUUUGACUAAAGAAGGUGCCAC | 0.147 | 0.38 | 0.595 | 0.452 |
| GUGGCCCUGAUGGCUAC | -0.622 | -0.0973 | -0.412 | -0.362 |
| GUGGCUAAAUCUGAAUUUGACCGUGAUGCAGCCAU [DMSMaPseq_invitro_SARS-CoV-2_Motif_214] | -0.199 | -0.12 | -0.504 | -0.576 |
| GUGGGGUAUUCAUCACCCGC [IAV_invivo_HA_4_Motif_9+IAV_invivo_HA_4_Motif_9] | 0.689 | 0.897 | 1.62 | 1.69 |
| GUGGUAGUUAUACUAAUGACAAAGCUUGCCCAUUGAUUGCUGC [DMSMaPseq_invitro_SARS-CoV-2_Motif_161] | 0.207 | 0.208 | 0.498 | 0.409 |
| GUGGUGAGACACUUGGUGUCCUUGUCCCUCAUGUGGGCGAAAUACCAGUGGCUUACCGC | -0.0757 | 0.812 | 0.798 | 0.769 |
| GUGGUUAUACCUACUAAAAAGGCUGGUGGCACUACUGAAAUGCUAGCGAAAGCUUUGAGAAAAGUGCCAACAGACAAUUAUAUAACCAC | 0.156 | 0.179 | -0.353 | -0.608 |

| Sequence | pull-down binding Z-score [1] | pull-down binding Z-score [2] | pull-down binding Z-score (TO-N3 (biotin conjugate)) | pull-down binding Z-score [3] |
| --- | --- | --- | --- | --- |
| GUGGUUGACCUACACAGGUGCCAU | -0.562 | 0.102 | -0.612 | -0.678 |
| GUGUAAAAGUGCCUUUUACAU | -0.646 | -0.872 | -0.957 | -0.525 |
| GUGUACCUUCCUUACCCAGAUCCAUCAAGAAUCCUAGGGGCCGGCUGUUUUGUAGAUGAUAUCGUAAAAACAGAUGGUACAC [SHAPE_invivo_SARS-CoV-2_Multi_39_ComplexLevel_1] | -0.087 | 0.318 | 0.78 | 0.725 |
| GUGUAUGCUGCUGACCCUGCUAUGCACGCUGCUUCUGGUAAUCUAUUACUAGAUAAACGCACUACGUGCUUUUCAGUAGCUGCAC | 0.434 | 0.698 | 0.772 | 0.39 |
| GUGUUAUAACAC | -0.531 | -1.12 | -0.404 | -0.176 |
| GUGUUUAUGAUUACUUAGUUUCUACACAGGAGUUUAGAUAUAUGAAUUCACAGGGACUACUCCCACCCAAGAAUAGCAUAGAUGC | 0.472 | -0.079 | -0.0167 | -0.215 |
| GUUAAAAAUCUGAAUUCUUCUAGAGUUCCUGAUCUUCUGGUCUAAAC | 0.157 | 0.13 | -0.527 | -0.557 |
| GUUAAAAUAUGAC [SHAPE_invivo_SARS-CoV-2_Motif_271] | -0.534 | -0.892 | -0.93 | -0.672 |
| GUUAAAAUGUUUGAUGCUUACGUUAAUACGUUUUCAUCAACUUUUAAC | -0.247 | -1.35 | -1.54 | -1.02 |
| GUUAACUGGUUAUAAGAAACCUGCUUCAAGAGAGCUUAAAGUUAC | 0.092 | -0.112 | -0.0514 | 0.0276 |
| GUUAAUGCCUAUAUUAACCUUGACCAGGGCUUUAAC | -0.198 | -0.216 | -0.0902 | 0.238 |
| GUUACGACUAUUGUAUACCUUACAAUAGUGUAAC | 0.229 | 0.142 | 0.531 | 0.593 |
| GUUAGUACAACUACUAAC [SHAPE_invivo_SARS-CoV-2_Motif_138] | -0.398 | -0.963 | -1.06 | -0.759 |
| GUUAUAAAUGGAGACAGGUGGUUUCUCAAUCGAUUUACCACAACUCUUAAUGAC | 0.00889 | -0.831 | -0.772 | -0.728 |
| GUUAUGUUGAUACACCUAAU [DMSMaPseq_invitro_SARS-CoV-2_Motif_328] | -0.132 | -0.329 | -0.585 | -0.598 |
| GUUCAGAGUUUAUUCUAGUGCGAAUAAUUGCACUUUUGAAUAUGUCUCUCAGC | 0.063 | -0.426 | -0.295 | -0.177 |
| GUUCGGAUGCUCGAACUGCACCUCAUGGUCAUGUUAUGGUUGAGCUGGUAGCAGAACUCGAAGGCAUUCAGUAC [DMSMaPseq_invitro_SARS-CoV-2_Motif_11] | -0.307 | 1.96 | 0.002 | -0.665 |
| GUUCGUGUUGUUUUAGAUUUCAUCUAAACGAAC | -0.562 | -0.397 | -1.12 | -0.845 |
| GUUCUAAGUAUUGCUCCAAUAAUGUUCUCAAACAAAAUGGCGAGACUGGGAAAAGGGUAUAUGUUUGAGAGCAAGAGUAUGAAACUUAGAAC [IAV_invivo_PB1_2_Motif_18+IAV_invivo_PB1_2_Motif_18] | 0.578 | 1.25 | 1.12 | 0.629 |
| GUUCUCAGUACAGAGAAAUCUCCCUUUUGACAGAACAACCAUUAUGGCAGCAUUCAAUGGGAAUACAGAGGGGAGAACAUCUGACAUGAGGAC [IAV_invivo_NP_5_Motif_22+IAV_invivo_NP_5_Motif_22] | -0.129 | 1.23 | 1.12 | 0.104 |
| GUUCUCUAAACGAAC | -0.742 | -1.16 | -0.364 | -0.273 |
| GUUCUCUAUGAGAAC | -0.504 | -1.47 | 0.0284 | 0.38 |
| GUUCUUCUUCGUAAGAAC | -0.206 | -1.19 | -0.728 | -0.358 |
| GUUCUUGAGUGUAAUGUGAAAACUACCGAAGUUGUAGGAGACAUUAUACUUAAACCAGC | 0.0674 | 0.162 | 0.111 | -0.133 |
| GUUCUUGUAUGUGAGAAC [IAV_invivo_PA_3_Motif_23+IAV_invivo_PA_3_Motif_23] | -0.614 | -1.09 | -0.949 | -0.598 |
